# Data: patent US20060263331A1, “Therapeutic use of tumor necrosis factor-alpha mutein” (priority 2002, published 2006)
# What was measured:
# Format in all cases: in vivo, human
# Breast Cancer = assay: Clinical monotherapy of rhTNFm1, breast cancer; settings: 10 patients
# Excerpt: (§1) Patients were selected based on the following criteria: i) measurable, objective tumor; ii) Karnofsky performance status (KPS)≧60; iii) age 18-75; iv) major organs in basically normal condition; v) no chemotherapy, radiotherapy and biologic therapy within the last month; vi) predicted ≧3 mon. survival; and vii) with patient's informed consent signed.
# (§2) Patients were excluded based on the following criteria: i) with history of allergic reactions to TNF or its derivatives; ii) pregnant or lactating women; iii) major organs with obvious damages or malfunction; iv) in ≧38° C. fever; v) with obvious tendency to haemorrhage; vi) with history of hypo- or hypertension; vii) with serious albuminemia; and viii) with strong tendency of disobedience or resistance.
# (§3) Patients were removed from the evaluation if any of the following conditions apply: i) treatment was not completed according to the protocol; ii) incomplete records; and iii) treatment using cancer therapies not in the protocol. However, patients who withdrew due to adverse reactions to the therapy were still included in the evaluation.
# (§4) The results of the treatment of tumors were evaluated based the following criteria: i) complete response (CR)—complete disappearance of observable pathological changes for at least 4 weeks; ii) partial response (PR)—reduction by ≧50% in tumor size measured by the product of the maximum circular and vertical dimensions for at least 4 weeks; iii) minimum response (MR)—reduction by >25% but <50% in tumor size measured by the product of the maximum circular and vertical dimensions for at least 4 weeks; iv) stabilized (SD)—reduction by ≦25% but without increase by >25% in tumor size measured by the product of the maximum circular and vertical dimensions for at least 4 weeks; and progression (PD): increase by >25% in tumor size in one or more sites.
# (§5) Patients rested on day 1 and 2. The treatment cycle was 3-4 weeks.
# malignant ascites = assay: Clinical monotherapy of rhTNFm1, malignant ascites; settings: 28 patients, monotherapy i.p.
# Excerpt: as §1, §2, §3
# (§6) The results of the treatment of malignant pleural effusion (or hydrothorax) and ascites were evaluated based on a modified Millar standard (Millar J W, Hunfer A M, Home N W. (1980) “Inerapleural immunotherapy with CP”, in Recurrent Malignant Pleural Effusions. Thorax 35:856): i) complete response (CR)—complete disappearance of pleural effusion or ascites for at least 1 month; ii) partial response (PR)—reduction by at least 1 grade for at least 1 month; iii) minimum response (MR)—reduction in the levels of pleural effusion or ascites within the same grade for at least 1 month; iv) stabilized (SD)—levels of pleural effusion or ascites maintained within the same grade for at least 1 month; and progressed (PD): increase in the levels of pleural effusion or ascites compared with those before the treatment.
# (§7) It is noted that Table III includes the patients who withdrew due to […], including 1 with malignant pleural effusion and 1 with malignant ascites. For patients with malignant ascites, rhTNFm1 was reconstituted in 30-50 ml normal saline and administered intraperitoneally (i.p.) at 2,000,000-3,000,000 units each time, 1-2 times a week, with 2-3 weeks as one treatment cycle. Optionally, rhTNFm1 was administered to the patients by alternating between i.p. injection and i.v. injection (at 600,000-900,000 unit/m^2 per day continuing for 28 days as one treatment cycle). On the day when rhTNFm1 was administered via i.p. injection, administration of rhTNFm1 via i.v. injection was stopped.
# malignant tumors = assay: Clinical monotherapy of rhTNFm1, all malignant tumors (Total); settings: Total of tumor indications, 141 patients
# Excerpt: as §1, §2, §3, §4, §5
# non-Hodgkin's lymphoma = assay: Clinical monotherapy of rhTNFm1, non-Hodgkin's lymphoma; settings: for Response Rate (%) CR / Response Rate (%) CR + PR / Response Rate (%) PR / Efficacy CR / Efficacy MR / Efficacy PD / Efficacy PR / Efficacy SD: Non-Hodgkin's, monotherapy; for Efficacy CR / Efficacy MR / Efficacy PD / Efficacy PR / Efficacy SD: patient count
# Excerpt: as §1, §2, §3, §4, §5
# Table II summaries results of the treatment of patients with malignant lymphoma, classified according to Hodgkin's disease and non-Hodgkin's lymphoma. Within each of category of lymphoma, patients were further classified into two groups: chemo-naïve and chemo-refractory. The chemo-naïve patients were patients who had never been treated with any anti-cancer agent previously whereas chemo-refractory patients were ones who failed treatment with one or more anti-cancer agent.
# [1] = system: malignant pleural effusion or ascites; assay: Clinical monotherapy of rhTNFm1, malignant pleural effusion or ascites (Total); settings: 169 patients
# Excerpt: as §1, §2, §3, §6, §5, §7
# [2] = Chemo-naïve Grade I & II, 4 patients
# [3] = Chemo-naïve Grade III & IV, 5 patients
molecule,measurement,setting,value
"rhTNFm1: Recombinant human TNF-α mutant 1 expressed in E. coli; SEQ ID NO: 3 with N-terminal methionine (FIG. 1, 2) (protein, rhTNFm1 with Met) MRKRKPVAHVVANPQAEGQLQWLNRRANALLANGVELRDNQLVVPSEGLYLIYSQVLFKGQGCPSTHVLLTHTISRIAVSYQTKVNLLSAIKSPCQRETPEGAEAKPWYEPIYLGGVFQLEKGDRLSAEINRPDYLDFAESGQVYFGIIAQ",Response Rate (%) CR,Breast Cancer,0.00%
same,Response Rate (%) CR + PR,Breast Cancer,0.00%
same,Response Rate (%) PR,Breast Cancer,0.00%
same,Efficacy CR,Breast Cancer; patient count,0
same,Efficacy MR,Breast Cancer; patient count,0
same,Efficacy PD,Breast Cancer; patient count,4
same,Efficacy PR,Breast Cancer; patient count,0
same,Efficacy SD,Breast Cancer; patient count,6
same,Response Rate (%) CR,malignant ascites,3.57%
same,Response Rate (%) CR + PR,malignant ascites,42.86%
same,Response Rate (%) PR,malignant ascites,39.29%
same,Efficacy CR,malignant ascites; patient count,1
same,Efficacy MR,malignant ascites; patient count,3
same,Efficacy PD,malignant ascites; patient count,1
same,Efficacy PR,malignant ascites; patient count,11
same,Efficacy SD,malignant ascites; patient count,12
same,Response Rate (%) CR,malignant tumors,1.42%
same,Response Rate (%) CR + PR,malignant tumors,16.31%
same,Response Rate (%) PR,malignant tumors,14.89%
same,Efficacy CR,malignant tumors; patient count,2
same,Efficacy MR,malignant tumors; patient count,14
same,Efficacy PD,malignant tumors; patient count,29
same,Efficacy PR,malignant tumors; patient count,21
same,Efficacy SD,malignant tumors; patient count,75
same,Response Rate (%) CR,non-Hodgkin's lymphoma; [2],0%
same,Response Rate (%) CR + PR,non-Hodgkin's lymphoma; [2],75%
same,Response Rate (%) PR,non-Hodgkin's lymphoma; [2],75%
same,Response Rate (%) CR,non-Hodgkin's lymphoma; [3],0%
same,Response Rate (%) CR + PR,non-Hodgkin's lymphoma; [3],60%
same,Response Rate (%) PR,non-Hodgkin's lymphoma; [3],60%
same,Response Rate (%) CR,"non-Hodgkin's lymphoma; Chemo-naïve Total, 9 patients",0%
same,Response Rate (%) CR + PR,"non-Hodgkin's lymphoma; Chemo-naïve Total, 9 patients",66.67%
same,Response Rate (%) PR,"non-Hodgkin's lymphoma; Chemo-naïve Total, 9 patients",66.67%
same,Response Rate (%) CR,"non-Hodgkin's lymphoma; Chemo-refractory, 56 patients",3.57%
same,Response Rate (%) CR + PR,"non-Hodgkin's lymphoma; Chemo-refractory, 56 patients",25%
same,Response Rate (%) PR,"non-Hodgkin's lymphoma; Chemo-refractory, 56 patients",21.43%
same,quality of life score after the treatment,"non-Hodgkin's lymphoma; one NHL patient, before 50",60
same,KPS after the treatment,"non-Hodgkin's lymphoma; one NHL patient, before 90",90
same,Efficacy CR,non-Hodgkin's lymphoma; [2],0
same,Efficacy MR,non-Hodgkin's lymphoma; [2],1
same,Efficacy PD,non-Hodgkin's lymphoma; [2],0
same,Efficacy PR,non-Hodgkin's lymphoma; [2],3
same,Efficacy SD,non-Hodgkin's lymphoma; [2],0
same,Efficacy CR,non-Hodgkin's lymphoma; [3],0
same,Efficacy MR,non-Hodgkin's lymphoma; [3],0
same,Efficacy PD,non-Hodgkin's lymphoma; [3],0
same,Efficacy PR,non-Hodgkin's lymphoma; [3],3
same,Efficacy SD,non-Hodgkin's lymphoma; [3],2
same,Efficacy CR,"non-Hodgkin's lymphoma; Chemo-naïve Total, 9 patients",0
same,Efficacy MR,"non-Hodgkin's lymphoma; Chemo-naïve Total, 9 patients",1
same,Efficacy PD,"non-Hodgkin's lymphoma; Chemo-naïve Total, 9 patients",0
same,Efficacy PR,"non-Hodgkin's lymphoma; Chemo-naïve Total, 9 patients",6
same,Efficacy SD,"non-Hodgkin's lymphoma; Chemo-naïve Total, 9 patients",2
same,Efficacy MR,"non-Hodgkin's lymphoma; Chemo-refractory, 56 patients",7
same,Efficacy PD,"non-Hodgkin's lymphoma; Chemo-refractory, 56 patients",10
same,Efficacy PR,"non-Hodgkin's lymphoma; Chemo-refractory, 56 patients",12
same,Efficacy SD,"non-Hodgkin's lymphoma; Chemo-refractory, 56 patients",25
same,Response Rate (%) CR,[1],8.88%
same,Response Rate (%) CR + PR,[1],69.23%
same,Response Rate (%) PR,[1],60.36%
same,Efficacy CR,[1]; patient count,15
same,Efficacy MR,[1]; patient count,12
same,Efficacy PD,[1]; patient count,2
same,Efficacy PR,[1]; patient count,102
same,Efficacy SD,[1]; patient count,38
